From patent publication US20240027467A1 (VIB VZW, published 2024)
Changes are numbered by the printed parent chain. Names and notes keep the numbering of the source. Where two headings read alike, the source gives them in different places.

Key:
[1] = target: T1, recombinant human coagulation factor IXa (human, UniProt P00740 134-191; P00740 227-461); test: BLI
T1 construct: range 134-191;range 227-461; Fluorescently labelled with Dylight-647 for the NANEX runs; also called FIXa

[2] = target: T1, recombinant human coagulation factor IXa; test: tandem NANEX: displacement of factor IXa from immobilised CA10502 by 1 mL of 2.5 mg/mL (24 µM) MegaBody CA14208; A280/A650 and SDS-PAGE
[3] = target: T2, GST (Glutathione S-transferase) (Schistosoma japonicum (Blood fluke), UniProt P08515 1-218 = GST); test: BLI
Procedure: (§1) Streptavidin-coated Octet® biosensors were used to capture biotinylated Nanobodies (1 μg/mL). […] All assays were performed in Hepes 25 mM pH7.5, NaCl 150 mM supplemented with BSA 0.1% and Tween²⁰ 0.005% at room temperature.

[4] = target: T2, GST (Glutathione S-transferase); test: BLI (OctetRed), biotinylated Nb on streptavidin sensor, GST 63-1667 nM
Procedure: as §1

[5] = target: T3, SMT3 (YDR510W), ubiquitin-like protein SMT3 (yeast); test: BLI
T3 construct: also called yeast SUMO protein
T3 chain: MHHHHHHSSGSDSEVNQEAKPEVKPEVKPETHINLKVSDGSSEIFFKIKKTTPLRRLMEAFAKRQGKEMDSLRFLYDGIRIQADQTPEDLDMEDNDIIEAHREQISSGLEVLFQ
Procedure: (§2) Streptavidin-coated Octet® biosensors were used to capture biotinylated Nanobodies (1 μg/mL). Binding and dissociation isotherms at several SMT3 concentrations (10 nM to 500 nM range) were analyzed on an OctetRed (molecular devices). All assays were performed in Hepes 25 mM pH7.5, NaCl 150 mM supplemented with BSA 0.1% and Tween²⁰ 0.005% at room temperature.

[6] = target: T3, SMT3 (YDR510W), ubiquitin-like protein …; test: BLI (OctetRed), biotinylated Nb on streptavidin sensor, SMT3 10-500 nM
Procedure: as §2

GFP protein [7] = target: T4, GFP protein (Aequorea victoria (Water jellyfish) …, UniProt P42212 1-238 = GFP); test: BLI
T4 construct: Purified GFP used as BLI analyte, in crystals and in NANEX; also called Green fluorescent protein
Procedure: (§3) Streptavidin-coated Octet® biosensors were used to capture biotinylated Nanobodies (1 μg/mL). Binding and dissociation isotherms at several GFP concentrations (8 nM to 500 nM range) were analyzed on an OctetRed (molecular devices). All assays were performed in Hepes 25 mM pH7.5, NaCl 150 mM supplemented with BSA 0.1% and Tween²⁰ 0.005% at room temperature.

GFP protein [8] = target: T4, GFP protein; test: BLI (OctetRed), biotinylated Nb on streptavidin sensor, GFP 8-500 nM
Procedure: as §3

mCherry [9] = test: BLI
Procedure: as §1

mCherry [10] = test: BLI (OctetRed), biotinylated Nb on streptavidin sensor, mCherry 8.23-222 nM
Procedure: as §1

[11] = target: T5, FmIH_lectin_mCherry_his (CA17337); test: NANEX column: lysate with FmlH_lectin_mCherry_his on immobilised CA16964; A280 and SDS-PAGE [D00043 FIG. 39B]
T5 construct: also called mCherry-fusion protein

mCherry [12] = test: BLI; remark: listed apart in the source
Procedure: as §1

mCherry [13] = test: BLI (OctetRed), biotinylated Nb on streptavidin sensor, mCherry 8.23-222 nM; remark: listed apart in the source
Procedure: as §1

[14] = target: T5, FmIH_lectin_mCherry_his (CA17337); test: displacement of FmlH_lectin_mCherry_his from immobilised CA16964 (NANEX column) by 1 mg CA17302; A280 and SDS-PAGE [D00043 FIG. 39B]
[15] = target: T5, FmIH_lectin_mCherry_his (CA17337); test: NANEX column: lysate with FmlH_lectin_mCherry_his on immobilised CA17341; A280/A585 and SDS-PAGE [D00045 FIG. 41B]
GFP protein [16] = target: T4, GFP protein; test: BLI; remark: listed apart in the source
Procedure: (§4) Streptavidin-coated Octet® biosensors were used to capture biotinylated Nanobodies (1 μg/mL). Binding and dissociation isotherms at several GFP concentrations (1 nM to 5 μM range) were analyzed on an OctetRed (molecular devices). All assays were performed in Hepes 25 mM pH7.5, NaCl 150 mM supplemented with BSA 0.1% and Tween²⁰ 0.005% at room temperature.

GFP protein [17] = target: T4, GFP protein; test: comparison of affinities told with the NANEX result
GFP protein [18] = target: T4, GFP protein; test: BLI (OctetRed), biotinylated Nb on streptavidin sensor, GFP as analyte
Procedure: as §4

T1 sequence (P00740 134-191 limits assumed, form in doubt, chain 1 of 2): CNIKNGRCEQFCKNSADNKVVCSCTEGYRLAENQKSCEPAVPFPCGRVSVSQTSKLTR
T1 sequence (P00740 227-461 limits assumed, form in doubt, chain 2 of 2): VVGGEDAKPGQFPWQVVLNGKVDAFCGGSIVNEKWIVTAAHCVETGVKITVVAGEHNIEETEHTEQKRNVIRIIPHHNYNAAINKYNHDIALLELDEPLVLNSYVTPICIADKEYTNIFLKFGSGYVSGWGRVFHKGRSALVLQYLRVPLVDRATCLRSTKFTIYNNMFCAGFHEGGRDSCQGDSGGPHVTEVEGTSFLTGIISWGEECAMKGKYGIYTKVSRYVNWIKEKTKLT

B1: CA10309 FIXa-specific Nb (Stripper2; C-term. 6xHis+EPEA) (VHH)
VHH: QVQLVESGGGLVQAGGSLRLSCATSGIGFSIYSMGWYRQAPGKERELVASIAGNEDKDYVESVKGRFTISRDYAKNTLYLEMSGLKFEDTAMYYCAAGLRRGVSLTPYYWGQGTQVTVSS
Kd [1]: 21 nM
koff [1]: 0.00073 s⁻¹
kon [1]: 62000 M⁻¹ s⁻¹

B2: CA14208 FIXa-specific MegaBody (Stripper2; C-term. 6xHis+EPEA) (other)
chain: QVQLVESGGGLVYKEETQSGLNNYARVVEKGQYDSLEIPAQVAASWESGRDDAAVFGFIDKEQLDKYVANGGKRSDWTVKFAENRSQDGTLLGYSLLQESVDQASYMYSDNHYLAEMATILGKPEEAKRYRQLAQQLADYINTCMFDPTTQFYYDVRIEDKPLANGCAGKPIVERGKGPEGWSPLFNGAATQANADAVVKVMLDPKEFNTFVPLGTAALTNPAFGADIYWRGRVWVDQFWFGLKGMERYGYRDDALKLADTFFRHAKGLTADGPIQENYNPLTGAQQGAPNFSWSAAHLYMLYNDFFRKQASGGGSGGGGSGGGGSGNADNYKNVINRTGAPQYMKDYDYDDHQRFNPFFDLGAWHGHLLPDGPNTMGGFPGVALLTEEYINFMASNFDRLTVWQDGKKVDFTLEAYSIPGALVQKLTAKDVQVEMTLRFATPRTSLLETKITSNKPLDLVWDGELLEKLEAKEGKPLSDKTIAGEYPDYQRKISATRDGLKVTFGKVRATWDLLTSGESEYQVHKSLPVQTEINGNRFTSKAHINGSTTLYTTYSHLLTAQEVSKEQMQIRDILARPAFYLTASQQRWEEYLKKGLTNPDATPEQTRVAVKAIETLNGNWRSPGGAVKFNTVTPSVTGRWFSGNQTWPWDTWKQAFAMAHFNPDIAKENIRAVFSWQIQPGDSVRPQDVGFVPDLIAWNLSPERGGDGGNWNERNTKPSLAAWSVMEVYNVTQDKTWVAEMYPKLVAYHDWWLRNRDHNGNGVPEYGATRDKAHNTESGEMLFTVKKDSLRLSCATSGIGFSIYSMGWYRQAPGKERELVASIAGNEDKDYVESVKGRFTISRDYAKNTLYLEMSGLKFEDTAMYYCAAGLRRGVSLTPYYWGQGTQVTVSSHHHHHHEPEA
notes: Functionalized Nanobody derived from CA10309; also called MegaBody MbCA10309^YgjK; MbNbFIXa^cHopQ
binding result [2]: binds

B3: CA10502 FIXa-specific Nb (Trapper2; C-term. 6xHis+EPEA) (VHH)
VHH: QVQLQESGGGLVQAGGSLRLSCAASGRTSRVYGVGWFRQAPGKERELVASISTSGSVTNVADSVKGRFTISRDNAKTTVYLQMNSLKPEDTALYYCAADPHGRPYGWGQGTQVTVSS
Kd [1]: 74 nM
koff [1]: 0.004 s⁻¹
kon [1]: 70000 M⁻¹ s⁻¹

B4: CA16239 GST Nanobody stripper (including C-terminal 6xHis+EPEA tag) (VHH)
VHH: QVQLVESGGGLVQAGGSLRLSCAASERTFSTYNMAWFRQAPGKEREFVAVISWNGGTTNSADSVKGRFTISRDNAKNTVYLQMNSLKPEDTAVYYCAARRVPYLSGTRYYTGEVDYDTWGQGTQVTVSS
modifications: biotinylated for BLI
Half time ratio (relative to wt) [3]: 1 fold
KD ratio (relative to wt) [3]: 1 fold
Kd [4]: 4.86 nM
koff [4]: 0.00309 s⁻¹
kon [4]: 720000 M⁻¹ s⁻¹

B5: CA16240 GST Nanobody trapper (Y109A) (including C-terminal 6xHis+EPEA tag) (VHH)
VHH: B4 VHH with Y109A
modifications: biotinylated for BLI
notes: Y109A mutant of CA16239
Half time ratio (relative to wt CA16239) [3]: 84 fold
KD ratio (relative to wt CA16239) [3]: 136 fold
Kd [4]: 659 nM
koff [4]: 0.251 s⁻¹
kon [4]: 512000 M⁻¹ s⁻¹

B6: CA11138 FIXa-specific Nb (C-term. 6xHis+EPEA) (VHH)
VHH: QVQLVESGGGLVQAGGSLRLSCAASERTASNYVMGWFRQAPGKEREFVAFISRTGGSTYYADSVKGRFTVSRDGAKNTVYLQMNTMKPEDTAVYYCAASLYIRNYYEGTNYAYWGQGTQVTVSS
notes: also called trapper1
Kd [1]: 141 nM
koff [1]: 0.0042 s⁻¹
kon [1]: 34000 M⁻¹ s⁻¹

B7: CA15839 SMT3 Nanobody stripper (including C-terminal 6xHis+EPEA tag) (VHH)
VHH: QVQLVESGGGSAQTGGSLTLSCTASGSIVSMNSMGWFRRAPWKGREWLGDIGRDGRTSYASSVVGRFHISRDEAKNTVYLQMTRLKPEDAAMYYCAAVPFGDDDVGEWEYWGQGTQVTVSS
modifications: biotinylated for BLI
Half time ratio (relative to wt) [5]: 1 fold
KD ratio (relative to wt) [5]: 1 fold
Kd [6]: 6.67 nM
koff [6]: 0.00212 s⁻¹
kon [6]: 318000 M⁻¹ s⁻¹

B8: CA16687 SMT3 Nanobody trapper (D50A) (including C-terminal 6xHis+EPEA tag) (VHH)
VHH: B7 VHH with D50A
modifications: biotinylated for BLI
Half time ratio (relative to wt CA15839) [5]: 3.75 fold
KD ratio (relative to wt CA15839) [5]: 4.34 fold
Kd [6]: 29 nM
koff [6]: 0.00797 s⁻¹
kon [6]: 387000 M⁻¹ s⁻¹

B9: CA16047 second GFP Nanobody stripper (including C-terminal 6xHis+EPEA tag) (VHH)
VHH: QVQLQESGGGLVQAGGSLRLSCAASGFTFDGYAIGWFRQAPGKEREGVSCISSSDGSTYYADSVKGRFTISSDNAKNTVYLQMNSLKPEDTAVYYCVAAWSPSTGCGSYYVQRPPGYDYWGQGTQVTVSS
modifications: biotinylated for BLI
notes: also called Nb CA16047
Half time ratio (relative to wt) (GFP protein [7]): 1 fold
KD ratio (relative to wt) (GFP protein [7]): 1 fold
Kd (GFP protein [8]): 6.15 nM
koff (GFP protein [8]): 0.00098 s⁻¹
kon (GFP protein [8]): 234000 M⁻¹ s⁻¹

B10: CA16695 second GFP Nanobody trapper (Y119F) (including C-terminal 6xHis+EPEA tag) (VHH)
VHH: B9 VHH with Y119F
modifications: biotinylated for BLI
notes: Y119F mutant of CA16047; also called Nb CA16695
Half time ratio (relative to wt CA16047) (GFP protein [7]): 1.78 fold
KD ratio (relative to wt CA16047) (GFP protein [7]): 1.37 fold
Kd (GFP protein [8]): 8.53 nM
koff (GFP protein [8]): 0.00167 s⁻¹
kon (GFP protein [8]): 200000 M⁻¹ s⁻¹

B11: CA16964 mCherry Nanobody trapper (including C-terminal 6xHis+EPEA tag) (VHH)
VHH: QVQLVESGGGLVQAGGSLRLSCAASGRDFSFDGMGWFRQAPGKEREFVAAISWSGLRIGYSDSVKGRFTISRDNAETTVHLQMNSLKPEDTAVYYCATGSHATTKAQLYDYEYWGQGTQVTVSS
modifications: biotinylated for BLI
notes: also called Nb CA16964
Half time ratio (relative to CA17302) (mCherry [9]): 4.27 fold
KD ratio (relative to CA17302) (mCherry [9]): 3.86 fold
Kd (mCherry [10]): 6.53 nM
koff (mCherry [10]): 0.00436 s⁻¹
kon (mCherry [10]): 694000 M⁻¹ s⁻¹
binding result [11]: binds

B12: CA17302 mCherry Nanobody stripper (including C-terminal 6xHis+EPEA tag) (VHH)
VHH: QVQLVESGGGLVQAGGSLRLSCVASGLPFSRYNMAWFRQAPGKEREFVADIDWSGDSTYDLDSVKGRFTISRDNAKNTVYLQMSSLLPEDTAVYYCAAHFKFILAQRIKWGDMDYWGKGTQVTVSS
modifications: biotinylated for BLI
notes: also called Nb CA17302
Half time ratio (relative to CA17302) (mCherry [9]): 1 fold
KD ratio (relative to CA17302) (mCherry [9]): 1 fold
Half time ratio (relative to wt) (mCherry [12]): 1 fold
KD ratio (relative to wt) (mCherry [12]): 1 fold
Kd (mCherry [10]): 1.69 nM
koff (mCherry [10]): 0.00102 s⁻¹
kon (mCherry [10]): 619000 M⁻¹ s⁻¹
Kd (mCherry [13]): 1.69 nM
koff (mCherry [13]): 0.00102 s⁻¹
kon (mCherry [13]): 619000 M⁻¹ s⁻¹
binding result [14]: binds

B13: CA17341 mCherry Nanobody trapper (CA17302 mutant) (including C-terminal 6xHis+EPEA tag) (VHH)
VHH: B12 VHH with I103A
modifications: biotinylated for BLI
notes: also called Nb CA17341
Half time ratio (relative to wt CA17302) (mCherry [12]): 2.26 fold
KD ratio (relative to wt CA17302) (mCherry [12]): 2.4 fold
Kd (mCherry [13]): 4.05 nM
koff (mCherry [13]): 0.00231 s⁻¹
kon (mCherry [13]): 601000 M⁻¹ s⁻¹
binding result [15]: binds

B14: CA15818 GFP-NbF103A (C-term. 6xHis + EPEA) (VHH)
VHH: QVQLVESGGGLVQAGGSLRLSCAASGRTFSTAAMGWFRQAPGKERDFVAGIYWTVGSTYYADSAKGRFTISRDNAKNTVYLQMDSLKPEDTAVYYCAARRRGATLAPTRANEYDYWGQGTQVTVSS
modifications: biotinylated for BLI
notes: F103A mutant of CA12760; also called Nb CA15818
Half-time ratio (relative to the wt Nb CA12760) (GFP protein [16]): 9 fold
KD ratio (relative to the wt Nb CA12760) (GFP protein [16]): 30 fold
affinity, fold higher than the trapper CA15816 (GFP protein [17]): 2 fold
Kd (GFP protein [18]): 1.5 nM
koff (GFP protein [18]): 0.00029 s⁻¹

B15: CA15861 GFP-NbT54A/V55A/F103A (C-term. 6xHis + EPEA) (VHH)
VHH: B14 VHH with T54A, V55A
modifications: biotinylated for BLI
notes: T54A/V55A/F103A mutant of CA12760; also called Nb CA15861
Half-time ratio (relative to the wt Nb CA12760) (GFP protein [16]): 1400 fold
KD ratio (relative to the wt Nb CA12760) (GFP protein [16]): 2000 fold
affinity, fold lower than the trapper CA15816 (GFP protein [17]): ~100 fold
Kd (GFP protein [18]): 111 nM
koff (GFP protein [18]): 0.0458 s⁻¹

B16: CA10304 FIXa-specific Nb (C-term. 6xHis+EPEA) (VHH)
VHH: QVQLVESGGGLVQAGGSLKLSCAASERTFSGTVMGWFRQPPGKEREFVGDISWSGSITDYADSVKGRFTISRDNAKNTMYLQMDSLKPEDTAVYYCAARVGGYSYIMSRSPADFGSWGQGTQVTVSS
notes: also called stripper1
Kd [1]: 46 nM
koff [1]: 0.0035 s⁻¹
kon [1]: 88000 M⁻¹ s⁻¹
